{
  "source": "patent US11912782B2",
  "about": "“BCMA monoclonal antibody-drug conjugate” (MedImmune, LLC, priority 2017, dated 2024)",
  "molecules": {"B1": {"name": "I09-SG3249: ADC: optimized clone I09 conjugated to the PBD payload SG3249 (conjugate)", "VH": "EVQLVESGGGLVKPGGSLRLSCAASGFTFSSYSMNWVRQAPGKGLEWVSSISGSSNYIYYADSVKGRFTISRDNAKNSLYLQMNSLRAEDTAVYYCARGGNYFVEYFQQWGQGTLVTVSS", "VL": "EIVLTQSPGTLSLSPGERATLSCRASQYISSNYLAWYQQKPGQAPRLLIYGASNRATGIPDRFSGSGSGTDFTLTISRLEPEDFAVYYCQQYSSDPITFGQGTKLEIK"}, "B2": {"name": "P10: lead optimized clone of 15B2GL; VH SEQ ID NO: 19, VL SEQ ID NO: 20 (antibody, V domains shown)", "VH": "B1 VH with S30R, S54Q, F103Y, Q109Y", "VL": "B1 VL with S93T, S94D, D95S"}, "B3": {"name": "N22: lead optimized clone of 15B2GL; VH SEQ ID NO: 17, VL SEQ ID NO: 18 (antibody, V domains shown)", "VH": "B1 VH with Q109Y", "VL": "B1 VL with D95S"}, "B4": {"name": "I09: lead optimized clone of 15B2GL; VH SEQ ID NO: 11, VL SEQ ID NO: 12 (antibody, V domains shown)", "VH": "B1 VH", "VL": "B1 VL"}, "B5": {"name": "M02: lead optimized clone of 15B2GL; VH SEQ ID NO: 15, VL SEQ ID NO: 16 (antibody, V domains shown)", "VH": "B1 VH with S54Q, F103Y, Q109Y", "VL": "B1 VL with Y33N"}, "B6": {"name": "L15: lead optimized clone of 15B2GL; VH SEQ ID NO: 13, VL SEQ ID NO: 14 (antibody, V domains shown)", "VH": "B1 VH with S54Q, Q109Y", "VL": "B1 VL with Y33N, S93A, S94D, D95S"}},
  "key": {"[1]": {"system": "MM.1S xenograft", "assay": "MM.1S subcutaneous xenograft model (Example 9)", "assay_type": "in vivo, mouse", "conditions": "3 mg/kg intravenous, observed for 85 days post tumor implantation", "source_text": "(§1) Subcutaneous xenograft mouse models of multiple myeloma and plasma cell leukemia were generated by implanting BCMA-expressing multiple myeloma or plasma cell leukemia cell lines (i.e., NCI-H929 and MM.1S) into female CB-17 SCID (C.B-17/IcrHsd-Prkdc-scid) mice using MATRIGEL™ (BD Biosciences, San Jose, Calif.). Once tumors reached approximately 200 mm^3 (NCI-H929 cells) or 180 mm^3 (MM.1S cells), mice were randomized based on tumor size and placed into dosing groups and treated with BCMA-targeting ADCs as described below.\nMice were treated with either a single intravenous dose of the ADCs IgG1-SG3400 or 15B2GL-SG3400 at 1 mg/kg or 3 mg/kg or dosed intravenously with J6M0-SG3400 at a dose of 1 mg/kg or 3 mg/kg. Control mice were left untreated."}, "[2]": {"system": "MM.1S cells", "assay": "Cell killing in the presence of soluble BCMA (conditioned media from Ad293 cells expressing human BCMA)", "assay_type": "cell-based", "experimental": "Killing of multiple myeloma and plasma cell leukemia cell lines by antibody-drug conjugates comprising 15B2GL, or affinity-optimized clones thereof, conjugated to SG3249 was evaluated in vitro using the protocol recommended in the CELLTITER-GLO® kit (Promega, Madison, Wis.). Killing of multiple myeloma and plasma cell leukemia cell lines by the free warhead SG3199 also was evaluated using the protocol recommended in the CELLTITER-GLO® kit (Promega, Madison, Wis.). Briefly, 5×10^3 cells in 80 μL RPMI+10% FBS were added to the inner wells of white-walled 96-well plates (Corning® Costar®, Fisher Scientific, Waltham, Mass.). The following BCMA-expressing cell lines were tested: NCI-H929, EJM, MM.1R. JJN3, OPM-2, MM.1S, U266.B1, and L363. BMCA-negative cell lines Raji and Jurkat also were tested. The antibody-drug conjugates were diluted to a 5× stock (2.5 μg/mL) in RPMI+10% FBS. Treatments were then serially diluted 1:3 in RPMI+10% FBS. 20 μL of this series was added to the cells in duplicate, resulting in a 12-point dose curve of antibody-drug conjugate ranging from 0.5 μg/mL at the highest concentration to 3×10^−[…] at the lowest. Isotype antibody-drug conjugate (IgG1-SG3249 and IgG1-mc-MMAF) and media-only controls also were included. Plates were incubated at 37° C., 5% CO2 for 96 hours. At the end of the incubation period, 100 μL of the Substrate Solution (Promega, Madison Wis.) was added to each well. Luminescence was measured using an EnVision™ Multilabel plate reader (Perkin Elmer, Waltham, Mass.). Data were analyzed and graphed using GraphPad Prism™ software (GraphPad Software, Inc., La Jolla, Calif.), and the half-maximal inhibitory concentration (IC50) was determined.\nThe ability of the 15B2GL-SG3249 ADC to kill multiple myeloma cells in vitro in the presence of soluble BCMA (sBCMA) as compared to the I09-5G3249 ADC was evaluated in MM.1S cells using the protocol described above, except that tested cell lines also were treated with BCMA-containing conditioned media collected from Ad293 cells expressing human BCMA (FIGS. 3A and 3B). 15B2GL-SG3249 ADC cell killing in the presence of sBCMA also was compared to ADCs comprising the anti-BCMA antibody J6M0, which is described in U.S. Pat. No. 9,273,141."}, "[3]": {"system": "JJN3 xenograft", "assay": "JJN3 subcutaneous xenograft model", "assay_type": "in vivo, mouse", "conditions": "single intravenous dose 1 mg/kg, observed for 104 days post tumor implantation", "source_text": "as §1, with “(i.e., NCI-H929, JJN-3, MM.1S,” for “(i.e., NCI-H929”, “and MM.1R)” for “and MM.1S)”, “(C.B-17/IcrHsd-Prkdc-scid) or athymic nude (Foxn1^nu)” for “(C.B-17/IcrHsd-Prkdc-scid)”, “approximately 180” for “approximately 200”, “(NCI-H929 cells), 190 mm^3 (JJN3 cells), 160” for “(NCI-H929 cells) or 180”, “(MM.1S cells), or 175 mm^3 (MM.1R” for “(MM.1S”\nMice were treated with either a single intravenous dose of 15B2GL-SG3249, 109-SG3249, and L15-SG3249 ADCs at 1 mg/kg, or dosed intravenously with J6M0-mc-MMAF ADC weekly at a dose of 1 mg/kg for 3 weeks. Control mice were left untreated."}, "[4]": {"system": "NCI-H929 xenograft", "assay": "NCI-H929 subcutaneous xenograft model (Example 5)", "assay_type": "in vivo, mouse", "conditions": "single intravenous dose 0.3 mg/kg, observed for 99 days post tumor implantation", "source_text": "as §1, with “(i.e., NCI-H929, JJN-3, MM.1S,” for “(i.e., NCI-H929”, “and MM.1R)” for “and MM.1S)”, “(C.B-17/IcrHsd-Prkdc-scid) or athymic nude (Foxn1^nu)” for “(C.B-17/IcrHsd-Prkdc-scid)”, “approximately 180” for “approximately 200”, “(NCI-H929 cells), 190 mm^3 (JJN3 cells), 160” for “(NCI-H929 cells) or 180”, “(MM.1S cells), or 175 mm^3 (MM.1R” for “(MM.1S”\nMice were treated with either a single intravenous dose of the ADCs 15B2GL-SG3249, I09-5G3249, L15-SG3249 at 0.3 mg/kg or dosed intravenously with J6M0-mc-MMAF weekly at a dose of 0.3 mg/kg for 2 weeks. Control mice were left untreated."}, "[5]": {"system": "MM.1S xenograft", "assay": "MM.1S subcutaneous xenograft model (Example 5)", "assay_type": "in vivo, mouse", "conditions": "single intravenous dose 1 mg/kg, observed for 99 days post tumor implantation", "source_text": "as §1, with “(i.e., NCI-H929, JJN-3, MM.1S,” for “(i.e., NCI-H929”, “and MM.1R)” for “and MM.1S)”, “(C.B-17/IcrHsd-Prkdc-scid) or athymic nude (Foxn1^nu)” for “(C.B-17/IcrHsd-Prkdc-scid)”, “approximately 180” for “approximately 200”, “(NCI-H929 cells), 190 mm^3 (JJN3 cells), 160” for “(NCI-H929 cells) or 180”, “(MM.1S cells), or 175 mm^3 (MM.1R” for “(MM.1S”\nMice were treated with either a single intravenous dose of 15B2GL-SG3249, 109-SG3249, L15-SG3249 ADCs at 1 mg/kg or dosed intravenously with J6M0-mc-MMAF twice weekly at a dose of 1 mg/kg for 4 weeks. Control mice were left untreated."}, "[6]": {"biological_target": "T1, monomeric human sBCMA (Homo sapiens, UniProt Q02223)", "T1 construct": "is comprised of the entire extracellular domain of the molecule; purchased GenScript", "T1 sequence (Q02223 1-54 limits assumed)": "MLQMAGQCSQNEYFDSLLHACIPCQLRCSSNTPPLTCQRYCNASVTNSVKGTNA", "assay": "Kinetics/affinity measurement by SPR (BioRad ProteOn XPR36), antibody captured by anti-Fc, sBCMA flowed over", "assay_type": "binding", "conditions": "for Koff / Kon: sBCMA 100-6.25 nM; for Kd: unit inferred", "experimental": "The binding of 15B2GL monoclonal antibody and optimized clones I09, L15, P10, N22, and M02 (described in Example 1) was assessed using monomeric human sBCMA (GenScript, Piscataway, N.J.) using a ProteOn™ XPR36 instrument (Bio-Rad, Hercules, Calif.). The binding of J6M0 also was assessed for comparison. Standard amine coupling was used to immobilize 25 μg/ml anti-Fc polyclonal antibody (Jackson ImmunoResearch, West Grove, Pa.) prepared in 10 mM sodium acetate buffer (pH 4.5) to the surface of a ProteOn™ GLC biosensor chip (Bio-Rad, Hercules, Calif.) pre-activated with 20 mM EDAC (1-ethyl-3-(3-dimethylaminopropyl)carbodiimide hydrochloride) and 5 mM Sulfo-NHS (N-hydroxysulfosuccinimide) at a density of ˜200-600 resonance units (RU). 15B2GL, I09, L15, P10, N22, M02, and J6M0 were subsequently injected at a concentration of 1 μg/ml for capture by the immobilized anti-Fc polyclonal antibody. The sensorgram was recorded by flowing two-fold serial dilutions of sBCMA prepared in PBS (pH 7.4) with 0.005% (v/v) Tween®-20, ranging from 100-6.25 nM, over the captured surface for 150 seconds at 75 μL/minute with dissociation time of 600 seconds. ProteOn™ data analysis software was used to analyze the data."}},
  "note": "Substitutions are numbered along the chain they refer to.",
  "data": [
    {"molecule": "J6M0-SG3400: BCMA-targeting ADC of J6M0 with SG3400", "values": [
      {"measurement": "tumor regrowth", "setting": "[1]", "value": "no evidence of tumor regrowth"}
    ]},
    {"molecule": "J6M0-SG3249: ADC comprising the anti-BCMA antibody J6M0 and SG3249", "values": [
      {"measurement": "IC50", "setting": "[2]; sBCMA 0 ng/mL", "value": 0.004816, "unit": "µg/mL"},
      {"measurement": "IC50", "setting": "[2]; sBCMA 75 ng/mL", "value": 0.01283, "unit": "µg/mL"},
      {"measurement": "Fold loss of potency", "setting": "[2]; sBCMA 75 ng/mL vs 0", "value": 2.66},
      {"measurement": "IC50", "setting": "[2]; sBCMA 270 ng/mL", "value": 0.03226, "unit": "µg/mL"},
      {"measurement": "Fold loss of potency", "setting": "[2]; sBCMA 270 ng/mL vs 0", "value": 6.70},
      {"measurement": "IC50", "setting": "[2]; sBCMA 720 ng/mL", "value": 0.09292, "unit": "µg/mL"},
      {"measurement": "Fold loss of potency", "setting": "[2]; sBCMA 720 ng/mL vs 0", "value": 19.29}
    ]},
    {"molecule": "B1", "values": [
      {"measurement": "tumor regrowth", "setting": "[3]", "value": "no evidence of tumor regrowth"},
      {"measurement": "tumor regrowth", "setting": "[4]", "value": "no evidence of tumor regrowth"},
      {"measurement": "tumor regrowth", "setting": "[5]", "value": "no evidence of tumor regrowth"}
    ]},
    {"molecule": "B2", "values": [
      {"measurement": "Koff", "setting": "[6]", "value": "3.73E−03"},
      {"measurement": "Kon", "setting": "[6]", "value": "7.01E+05"},
      {"measurement": "Kd", "setting": "[6]", "value": 5.32, "unit": "nM"}
    ]},
    {"molecule": "B3", "values": [
      {"measurement": "Koff", "setting": "[6]", "value": "8.73E−03"},
      {"measurement": "Kon", "setting": "[6]", "value": "5.36E+05"},
      {"measurement": "Kd", "setting": "[6]", "value": 16.3, "unit": "nM"}
    ]},
    {"molecule": "B4", "values": [
      {"measurement": "Koff", "setting": "[6]", "value": "5.99E−03"},
      {"measurement": "Kon", "setting": "[6]", "value": "6.09E+05"},
      {"measurement": "Kd", "setting": "[6]", "value": 9.82, "unit": "nM"}
    ]},
    {"molecule": "B5", "values": [
      {"measurement": "Koff", "setting": "[6]", "value": "4.97E−03"},
      {"measurement": "Kon", "setting": "[6]", "value": "4.99E+05"},
      {"measurement": "Kd", "setting": "[6]", "value": 9.95, "unit": "nM"}
    ]},
    {"molecule": "B6", "values": [
      {"measurement": "Koff", "setting": "[6]", "value": "3.86E−03"},
      {"measurement": "Kon", "setting": "[6]", "value": "8.54E+05"},
      {"measurement": "Kd", "setting": "[6]", "value": 4.51, "unit": "nM"}
    ]}
  ]
}
